Tests used:
Assay in all cases: UV-induced peptide exchange, HLA class I ELISA; Pos peptide = 100%;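 note: Streptavidin-captured biotinylated HLA class I complexes detected by HRP-conjugated anti-human B2M antibody, absorbance readout of intact complex amount after exchange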
HLA-A*03:01 = target: T1, HLA-A*03:01 (human, biotinylated heavy chain)
T1 construct: Conditional HLA class I complex whose UV-labile peptide is exchanged for the test peptide
Method: (§1) The exchange efficiency between the peptide of interest and Pos was analyzed using an HLA class I ELISA.
(§2) The HLA class I ELISA is an enzyme immunoassay based on the detection of beta2-microglobulin (B2M) of (peptide-stabilized) HLA class I complexes. To this end streptavidin was bound onto polystyrene microtiter wells. After washing and blocking, HLA complex present in exchange reaction mixtures or ELISA controls was captured by the streptavidin on the microtiter plate via its biotinylated heavy chain. Non-bound material was removed by washing. Subsequently, horseradish peroxidase (HRP)-conjugated antibody to human B2M was added. […] In the latter case B2M was removed during the washing step. After removal of non-bound HRP conjugate by washing, a substrate solution was added to the wells. A coloured product formed in proportion to the amount of intact HLA complex present in the samples. After the reaction was terminated by the addition of a stop solution, absorbance was measured in a microtiter plate reader.

HLA-A*24:02 = target: T2, HLA-A*24:02 (human, biotinylated heavy chain)
T2 construct: Conditional HLA class I complex whose UV-labile peptide is exchanged for the test peptide
Method: as §1, §2

HLA-B*07:02 = target: T3, HLA-B*07:02 (human, biotinylated heavy chain)
T3 construct: Conditional HLA class I complex whose UV-labile peptide is exchanged for the test peptide
Method: as §1, §2

HLA-A*01:01 = target: T4, HLA-A*01:01 (human, biotinylated heavy chain)
T4 construct: Conditional HLA class I complex whose UV-labile peptide is exchanged for the test peptide
Method: as §1, §2

HLA-A*02:01 = target: T5, HLA-A*02:01 (human, biotinylated heavy chain)
T5 construct: Conditional HLA class I complex whose UV-labile peptide is exchanged for the test peptide
Method: as §1, §2

| Binder | exchange rate with Pos peptide (HLA-A*03:01) [%] | exchange rate with Pos peptide (HLA-A*24:02) [%] | exchange rate with Pos peptide (HLA-B*07:02) [%] | exchange rate with Pos peptide (HLA-A*01:01) [%] | exchange rate with Pos peptide (HLA-A*02:01) [%] |
| --- | --- | --- | --- | --- | --- |
| NMVENGCYL (9-mer fragment of neoantigen P59; synthetic peptide) [P59 9-mer NMVENGCYL] | 4.5 | -0.5 | 7.5 | 2.2 | 11.9 |
| FPVGAEGTF (9-mer fragment of neoantigen P27; synthetic peptide) [P27 9-mer FPVGAEGTF] | 4.5 | 0.7 | 7.8 | 4.8 | 10 |
| FFKRAAEGF (9-mer fragment of neoantigen P77 (AR-V3); synthetic peptide) [P77 9-mer FFKRAAEGF] | 2.8 | 1.7 | 14.2 | 1.9 | – |
| STRRAVRRM (9-mer fragment of neoantigen P16 (MSMB-NCOA4 fusion); synthetic peptide) [P16 9-mer STRRAVRRM] | 6.1 | 0.8 | 13.7 | 5.5 | 10.4 |
| GVLRRLLCR (9-mer fragment of neoantigen P37; synthetic peptide) [P37 9-mer GVLRRLLCR] | 6.4 | -0.1 | – | 1.4 | 12.5 |
| NSKMALNSL (9-mer fragment of neoantigen P35; synthetic peptide) [P35 9-mer NSKMALNSL] | 4.2 | 0.2 | 12.1 | 2.5 | 12.5 |
| IQYSCMGLM (9-mer fragment of neoantigen P50; synthetic peptide) [P50 9-mer IQYSCMGLM] | 5.5 | 0.1 | 10.4 | 2.3 | 8.8 |

Reference: patent US20230035403A1 (Janssen / Centocor, published 2023)
